From patent US10280200B2, “Non-natural consensus albumin binding domains” (Janssen Biotech, Inc., priority 2012, dated 2019)

Key:
[1] = Solubility after expression and purification from E. coli; assay type: physicochemical; details: expressed and purified from E. coli
[2] = Stability on incubation in PBS at 37° C. for 28 days, SDS-PAGE and Mass Spectrometry; assay type: physicochemical; details: PBS pH 7.4, 37° C.
Protocol: The FN3 domain-ABDCon fusion proteins were generated using standard cloning techniques. The amino acid sequence of one of the fusion proteins, Tencon-ABDCon is shown in SEQ ID NO: 41. Other FN3 domain-ABDCon fusion proteins made were Tencon25-ABDCon, 83-ABDCon and 71-ABDCon. These proteins were produced with c-terminal poly histidine tags and purified by a combination of nickel affinity and size exclusion chromatography using standard methods. Each purified molecule was incubated in PBS pH 7.4 at 37° C. for 28 days before analysis by SDS-PAGE and Mass Spectrometry.
However one peptide sequence, TIDEWL (SEQ ID NO: 43), is present N-terminal to 5 of these protein domains. […] This protein was expressed with an N-terminal poly histidine tag and purified to homogeneity using standard methods for nickel affinity chromatography and size exclusion chromatography. Purified ABDCon12 was incubated at 37° C. in PBS for 28 days and stability assessed by SDS-PAGE and mass spectrometry.

[3] = Thermal stability by differential scanning calorimetry (DSC) in PBS; assay type: physicochemical
Protocol: A second identical scan was completed on the sample in order to assess the reversibility of thermal folding/unfolding. Data was fit to a 2-state unfolding model in order to calculate the melting temperature.
The melting temperature of ABDCon12 was determined by differential scanning calorimetry using the procedures outlined in Example 2 above in order to investigate the mechanism of stabilization for this molecule.

human serum albumin = human serum albumin (Homo sapiens, UniProt P02768); assay: Kinetics of binding to immobilized human serum albumin, ProteOn XPR-36 surface plasmon resonance; details: read-out: KD (affinity) to human albumin, conditions specified herein
Protocol: Human (SEQ ID NO: 36), Rhesus (SEQ ID NO: 37), and murine (SEQ ID NO: 38) serum albumins were purchased from Sigma (Catalogue # A4327 for human, #A3559 for murine, and #A4297 for rhesus) and resuspended in PBS at different concentrations. Each serum albumin was directly immobilized on a ligand channel in the vertical orientation of a GLC chip via standard amine coupling at 2.1 μg/mL at pH 5.0 to obtain surfaces with ligand densities of 500-1000 resonance units. […] The dissociation phases for all concentrations were monitored for two hours at a flow rate of 100 μL/min using PBST (PBS, 0.005% Tween20) as running buffer. A sixth sample (buffer only) was injected to monitor the baseline stability. The surfaces were regenerated using 1 short pulse (18 μL) of 0.8% phosphoric acid.
The raw response data were first processed by subtracting the buffer only responses and the non-specific binding between the analytes and the chip. Processed data of all five concentrations were globally fit to a 1:1 simple langmuir binding model for each ligand surface.

[4] = Serum half-life / pharmacokinetics of fusion proteins in mice (MSD sandwich ELISA of serum); assay type: in vivo, BALB/c female mice
Protocol: Tencon25 is a protein scaffold based on a consensus sequence of a fibronectin type III (FN3) repeat protein having a sequence shown in residues 1-90 of SEQ ID NO: 39, and described in US2011/0274623A1. […] The resulting fusion protein has a polypeptide sequence shown in SEQ ID NO: 39. A poly-histidine tag was incorporated at the C-terminus for purification purposes. […] BALB/c female mice were split into 3 groups (N=3 group 1 non-treated control, and N=33 groups 2-3). Mice were treated with a single intravenous dose of the Tencon25-ABDCon fusion protein at 2 mg/kg. The dosing was based upon the weight of the animals on the day of administration. The mice were euthanized at the following time points after the injection: 10 min, 30 min, 1, 4, 6, hours, and 1, 2, 3, 7, 10, 14 days. Blood samples were taken from each animal via cardiac puncture. The blood samples were allowed to clot at room temperature for 30 minutes, but no longer than 1 hour. The blood samples were then centrifuged at approximately 3,500 rpm for 15 minutes. Serum samples were analyzed using a homogenous sandwich ELISA on the Mesoscale Discovery platform. Streptavidin-Gold plates (Mesoscale Discovery) were blocked for 1 hour with Superblock (TBS) Tween-20 (Thermo). Polyclonal anti-Tencon25 antibody was used for both capture (biotinylated) and detection (labeled with MSD Sulfo-Tag (Mesoscale Discovery)) at 0.625 μg/ml. The antigen and antibodies were added to the plates, which were incubated for 2 hours with vigorous shaking at RT. Plates were washed with TBS-T (Sigma) and MSD Read Buffer with Surfactant (Mesoscale Discovery) was added. The plates were read using the MSD Sector Imager 6000. Data was analyzed using GraphPad Prism. Previous studies have shown that a similar, unfused Tencon molecule is cleared from the bloodstream quickly with a serum half-life of approximately 20 minutes in mice.
These molecules were dosed into mice at 2 mg/kg as described above in previous studies and analyzed using identical methods as described for the Tencon25-ABDCon fusions.

Molecule: ABDCon11: ABDCon mutant A37Y, SEQ ID NO: 34 (LKEAKEKAIEELKKAGITSDYYFDLINKAKTVEGVNYLKDEILKA; Non-natural albumin binding domain ABDCon11)
- solubility of the expressed mutant [1]: insoluble

Molecule: ABDCon12: ABDCon with TIDEWL added to the N-terminus, SEQ ID NO: 44 (TIDEWLLKEAKEKAIEELKKAGITSDYYFDLINKAKTVEGVNALKDEILKA; ABDCon12)
- stability (degradation) after incubation [2]: degradation is occurring exclusively in the polyhistidine tag and not in the ABDCon12 sequence
- melting temperature (thermal stability) [3]: 90.9 °C
- increase of melting temperature compared to the original ABDcon molecule ([3]; DSC in PBS): 9.4 °

Molecule: ABDCon: non-natural albumin binding domain consensus, SEQ ID NO: 21: […] (LKEAKEKAIEELKKAGITSDYYFDLINKAKTVEGVNALKDEILKA; not fully specified)
- Kd (human serum albumin): 0.075 nM

B1: Tencon25-ABDCon: fusion of ABDCon to the c-terminus of Tencon25 FN3 scaffold by a (G4S)2 linker, SEQ ID NO: 39 (protein)
chain: MLPAPKNLVVSEVTEDSARLSWTAPDAAFDSFLIQYQESEKVGEAIVLTVPGSERSYDLTGLKPGTEYTVSIYGVKGGHRSNPLSAIFTTGGGGSGGGGSLKEAKEKAIEELKKAGITSDYYFDLINKAKTVEGVNALKDEILKA
modifications: Fusion protein Tencon25-ABDcon
- AUC ([4]; 2 mg/kg intravenously): 2054.332 µg·h/mL
- Clearance ([4]; 2 mg/kg intravenously): 22.93 mL/day/kg
- T (½) ([4]; 2 mg/kg intravenously): 60.42 h
- Volume of Distribution ([4]; 2 mg/kg intravenously): 0.0832873 L/kg
- serum half-life ([4]; single intravenous dose 2 mg/kg): over 60 hours
- stability (degradation) after incubation [2]: degraded

B2: Tencon-ABDCon: FN3 domain-ABDCon fusion protein, SEQ ID NO: 41 (protein)
chain: MLPAPKNLVVSEVTEDSLRLSWTAPDAAFDSFLIQYQESEKVGEAINLTVPGSERSYDLTGLKPGTEYTVSIYGVKGGHRSNPLSAEFTTGGGGSGGGGSLKEAKEKAIEELKKAGITSDYYFDLINKAKTVEGVNALKDEILKA
modifications: Tencon-ABDCon fusion protein
- stability (degradation) after incubation [2]: degraded
